{
  "source": "patent US20230122991A1",
  "about": "“GROWTH FACTOR FORMULATION FOR CONDITION ASSOCIATED WITH OTIC EVENT” (OTONOMY, INC., priority 2020, published 2023)",
  "molecules": {"B1": {"name": "brain-derived neurotrophic factor (protein, UniProt P23560 129-247, looked up)", "Neurotrophic factor BDNF": "HSDPARRGELSVCDSISEWVTAADKKTAVDMSGGTVTVLEKVPVSKGQLKQYFYETKCNPMGYTKEGCRGIDKRHWNSQCRTTQSYVRALTMDSKKRIGWRFIRIDTSCVCTLTIKRGR", "modifications": "Neurotrophic factor BDNF in 16% poloxamer 407 gel", "notes": "Human recombinant BDNF"}},
  "test_system": "rats after acoustic trauma",
  "experiment": "Noise-induced cochlear synaptopathy, IHC synaptic puncta counts at various BDNF concentrations (Example K)",
  "type": "in vivo, rat",
  "settings": "at all three BDNF concentrations (0.005%, 0.05%, 0.5% BDNF in P407); Day 28; FIG. 19",
  "procedure": "Animals: Male Sprague-Dawley rats (5-6 months of age) were used for efficacy studies and females (2-3 months) were used for pharmacokinetic studies.\nFormulations: Human recombinant BDNF was suspended in the thermoreversible polymer Poloxamer 407 (16%) to reach a range of BDNF concentrations (0.005%, 0.05%, and 0.5% by weight).\nIntratympanic (IT) injection: Formulations were administered under anesthesia as a single IT injection (20 μl) through the tympanic membrane into the middle ear, targeting the round window membrane (RWM).\nNoise-induced cochlear synaptopathy: Rats received a single acoustic trauma (105 dB SPL, 8-16 kHz, 1 h) under anesthesia. 24 hours later (Day 1) animals received a single bilateral IT injection of the treatment regimens. Auditory function (ABR and ABR wave 1 amplitude) was monitored at day 1 and then every 7 days for 28 days, as illustrated in FIG. 16. At termination (Day 28), cochleae were collected and assessed for evidence of cochlear synaptopathy (IHC synaptic puncta counts).\nImmunohistochemistry: Dissected cochleae were immunostained with antibodies against presynaptic (CtBP2) and postsynaptic (GluR2) proteins and MyosinVIIa to label hair cells. Cochleae were then frequency mapped and high-magnification images were obtained with a Zeiss LSM-880 confocal microscope and imaged at an interval of 0.35 μm.",
  "data": [
    {"molecule": "B1", "values": [
      {"measurement": "synaptic puncta (co-expression of CtBp2 and GluR2) per inner hair cell", "value": "increased"}
    ]}
  ]
}
